Changes are numbered by the printed parent chain. In names and notes the source's numbering stands.
B1: B3 (antibody, V domains shown)
VH: EVKLVESGGGLVKPGGSLKLSCTASGFTFSNYAMSWVRQTPEKRLEWVASISGGGSTYYPDSVKGRFTIAIDYARNILYLQMSSLRSEDTAIYFCTRGVSYGDYAMDYWGQGTSVTVSS
VL: ETTVTQSPASLSMAIGEKVTIRCVTSTDIDDDMNWYQQKPGGPPKLLISEGNTLRPGVPSRFSSSGYGSDFVFTIEDMLSEDVADYYCLQSDNLPLTFGAGTKVELK
notes: B-cell cloning campaign (mice)
B2: B4 (antibody, V domains shown)
VH: B1 VH with F94Y
VL: B1 VL
notes: as for B1
B3: C3 (antibody, V domains shown)
VH: EVHLQQSGPELVKPGASVKISCKASGYTFTDYYLNWVKLSLGKSLEWIGDINPNDGDTSYNQTFKGKATLTVDKSSSTAYMELRSLTSEDSAVYYCARRASSYYSNYGWYFDVWGTGTTVTVSS
VL: DILLTQSPAILSVSPGERVSFSCRASQSIGTSIHWYQQRTNGSPRLLIKFASESISGIPSRFSGSGSGTDFTLSINTVESEDIGDYYCQESNSWPTTFGAGTKLELK
notes: first hybridoma campaign
B4: D9 (antibody, V domains shown)
VH: QVQLKESGPGLVAPSQSLSITCSVSGFSLSSYAINWVREPPGKGLEWLGVIWTGGGTNYNSALKSRLSISKDNSKSQVFLKMNSLQTDDTARYYCARNSIYYDYDGFAYWGQGTLVTVSA
VL: DIQMTQSSSYLSVSLGGRVTITCKASDHINNWLAWYQQKPGNAPRLLISGATSLETGVPSRFSGSGSGKDYTLSITSLQTEDFTTYYCQQYWSTPYTFGGGTKLEIK
notes: second hybridoma campaign
B5: hPA-002 (antibody, V domains shown)
VH: QVTLQESGPGILQPSQTLSLTCSFSGFSLSTFGMGVGWIRQPSGKGLEWLAHIWWDDDKYYNPALKSRLTISKDTSKNQVFLKIASVDTADIATYYCARVEDYGNPFDYWGQGTTL
VL: DIQMNQSPSSLSASLGDTITITCHASQNIHVWLNWYQQKPGNIPKLLIYKASNLHTGVPSRFSGSGSGTGFTVTISSLQPEDIATYYCQQGQSYPLTFGAGTKLELK
B6: hPA-005 (antibody, V domains shown)
VH: QVILKESGPGILQSSQTLSLTCSFSGFSLSTFGMGVGWIRQPSGKGLESLAHIWWDDDKFYNPALKSRLTISKDTSKSQVFLKIANVDTADIATYYCTRIEDYGSYFAYWGQGTTLTVSS
VL: B5 VL with I2V, T18P, K39R, K45R, V73L, L96Y, A100G, L106I
B7: hPA-004 (antibody, V domains shown)
VH: QVTLKESGPGMLQPSQTLSLACSFSGFSLNSFGVAVGWIRQPSGKGLEWLAHIWWDDDKSYNPALKSRLTISKDTSKNQVFLKLANVDTADTATYYCTRIADYGNHFDYWGQGTALTVSS
VL: B5 VL with I29S, N34S, V73L, S77G, S93T, L96F, A100S, L106I

Assays:
[1] = target: cynomolgus PILRA, ectopically expressed on 293 cells (cynomolgus monkey); assay: screening summary, TCP groups
[2] = target: T1, human PILRA, c-term His-Avi tag (human, UniProt Q9UKJ1 20-197, limits assumed); assay: SPR (Biacore), antibody captured, PILRA as analyte
T1 construct: not shown: C-terminal His-Avi tag
Outline: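 Antibodies were captured at 10 μg/ml on an anti-huFc or anti-msFc CM5 surface, and human PILRA was flowed at 33, 100 and 300 nM in HBSTE/0.5% BSA, pH 7.4. The surface was regenerated with 10 mM glycine-HCl, pH 2.1, after each analyte. Curves were double-referenced with buffer injections.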

[3] = target: T2, human PILRA, G78 variant, ectopically expressed on 293 cells (human, UniProt Q9UKJ1 20-303); assay: screening summary, TCP groups
T2 construct: the cells are labelled G78; also called hA G78 OE; hA

[4] = target: T3, PILRA Fc (soluble human PILRA) (human, UniProt Q9UKJ1 20-197, limits assumed); assay: flow cytometry blocking assay, graph 'V1 Blocking_CD3+T Donor 906': antibody mixed with PILRA-Fc, then human CD3+ T cells; bound PILRA-Fc detected with AF647 2nd Ab; blocked partner: PILRA ligand on the T cells
T3 construct: also called soluble PILRA; not shown: Fc part, detected with anti-human IgG
Method: The ability of conditioned media samples containing antibodies to inhibit the binding of PILRA Fc to human CD3+ T cells was assessed. Briefly, conditioned media samples containing antibodies were incubated with 1.25 ug/ml PILRA Fc for 30 min at 4° C. and then added to human T cells. After 30 minutes incubation at 4° C., cells were washed, and bound PILRA Fc was detected with anti-human IgG Alexa 647. Cells were analyzed by flow cytometry on FACS Canto II, and for all cell lines, the amount of PILRA Fc binding (MIFI) and the percentage of PILRA Fc binding in the presence of conditioned media relative to PILRA Fc binding alone was calculated. Several antibodies inhibited binding of PILRA Fc to human T cells, and a few antibodies enhanced PILRA-Fc binding to T cells. Antibodies that show enhancement in this assay may block cis inhibition to promote trans interactions or may allosterically activate to enhance trans interactions without blocking cis.

T1 sequence (Q9UKJ1 20-197 limits assumed): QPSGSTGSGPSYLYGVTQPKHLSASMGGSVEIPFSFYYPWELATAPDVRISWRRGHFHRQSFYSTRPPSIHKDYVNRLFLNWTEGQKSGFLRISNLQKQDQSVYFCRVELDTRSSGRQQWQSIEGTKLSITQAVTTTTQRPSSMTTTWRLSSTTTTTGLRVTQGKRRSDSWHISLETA
T3 sequence (Q9UKJ1 20-197 limits assumed): as above
cynomolgus PILRA, ectopically expressed on 293 cells (cynomolgus monkey), sequence (chain, as listed by the source): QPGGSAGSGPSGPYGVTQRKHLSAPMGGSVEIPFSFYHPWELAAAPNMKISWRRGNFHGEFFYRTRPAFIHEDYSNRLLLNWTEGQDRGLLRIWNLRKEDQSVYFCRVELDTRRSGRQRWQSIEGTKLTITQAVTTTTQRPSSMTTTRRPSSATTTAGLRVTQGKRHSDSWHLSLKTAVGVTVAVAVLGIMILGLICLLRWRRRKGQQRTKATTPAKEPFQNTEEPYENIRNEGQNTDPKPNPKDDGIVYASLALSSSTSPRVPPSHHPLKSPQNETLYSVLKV
T2 sequence (Q9UKJ1 other isoform, or with tags, fused parts or gaps mutant): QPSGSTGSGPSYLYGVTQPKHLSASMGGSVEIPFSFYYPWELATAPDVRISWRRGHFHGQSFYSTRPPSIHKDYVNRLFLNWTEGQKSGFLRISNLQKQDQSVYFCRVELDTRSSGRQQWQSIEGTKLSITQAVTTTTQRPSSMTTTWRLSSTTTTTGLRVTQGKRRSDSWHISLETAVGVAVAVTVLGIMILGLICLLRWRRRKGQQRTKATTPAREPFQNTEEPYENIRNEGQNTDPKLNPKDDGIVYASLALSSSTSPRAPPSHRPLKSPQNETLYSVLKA

| Binder | binding result [1] | binding result [2] | Kd [2] [nM] | koff [2] [s⁻¹] | kon [2] [M⁻¹ s⁻¹] | t½ [2] [min] | binding result [3] | IC50 (read off the curve) [4] [µg/mL] |
| --- | --- | --- | --- | --- | --- | --- | --- | --- |
| B1 | binds | no binding (tested: 33, 100, and 300 nM) |  |  |  |  |  |  |
| B2 | binds |  | 88.3 | 0.00054 | 6100 | 21.4 |  |  |
| B3 | binds |  | 8.3 | 0.0042 | 510000 | 2.7 |  |  |
| B4 |  |  |  |  |  |  | binds |  |
| B5 |  |  | 23.4 | 0.0052 | 220000 | 2.2 |  | ~1 |
| B6 |  |  | 7 | 0.0015 | 210000 | 7.9 |  | ~3 |
| B7 |  |  | 9 | 0.0011 | 130000 | 10.1 |  | ~3 |

From patent US20240425587A1 (Alector, published 2024)
